Like-named read-outs stand apart in the source and are kept apart here.

Assay [1] deals with Fas death domain (UniProt P25445).
For assay [2] the target is unchanged. Description: crystal structure.
For assay [3], the target named is FADD death domain, His6-tagged (UniProt Q13158). Description: pull-down.
Sequence of UniProt Q13158 (Q13158 93-191): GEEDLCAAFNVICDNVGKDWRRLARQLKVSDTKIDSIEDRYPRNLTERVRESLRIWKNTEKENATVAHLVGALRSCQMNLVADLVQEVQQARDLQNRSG

The term stoichiometry N denotes a count of units in the complex or per binding partner. For “Fas death domain (from UniProt P25445 230-314) (domain or fragment)”, the stoichiometry N with Fas death domain [1] and with Fas death domain [2] was 4 each time. This substance also had a concentration at which the complex dissociates in assay [3] of 50 µM.

These data come from publication PMC2661029.
